# Data published in patent US20210340238A1, “TGFß1 INHIBITORS AND USE THEREOF” (Scholar Rock, Inc., priority 2018, published 2021).
# Substitutions are numbered along the chain they refer to. Values joined by “and” are separate entries in the source; they are usually repeats but may differ in a detail not shown here. Equal values may be shown once.
# B1: Ab19: monoclonal antibody binding proTGFβ1 complexes; VH SEQ ID NO: 234, VL SEQ ID NO: 15 (antibody, V domains shown)
# VH: QVQLVESGGGVVQPGRSLRLSCAASGFTFSSFAMTWVRQAPGKGLEWVSAISGSGAATYFADSVKGRFTISRDNSKNTLYLQMNSLRAEDTAVYYCARVSSGHWDFDEWGQGTLVTVSS
# VL: DIQLTQSPSSLSASVGDRVTITCRASQSISSYLNWYQQKPGKAPKLLIYAASNLQSGVPSRFSGSGSGTDFTLTISSLQPEDFATYYCQQTYTVPLTFGGGTKVEIK
# B2: Ab12: monoclonal antibody binding proTGFβ1 complexes; VH SEQ ID NO: 212, VL SEQ ID NO: 15 (antibody, V domains shown)
# VH: B1 VH with S31D, F32Y, T35V, A56F, A57T, F60Y, E108Y
# VL: B1 VL
# B3: Ab13: monoclonal antibody binding proTGFβ1 complexes; VH SEQ ID NO: 222, VL SEQ ID NO: 223 (antibody, V domains shown)
# VH: EVQLLESGGGLVQPGGSLRLSCAASGFTFADYAMTWVRQAPGKGLEWVSAISSFASAIYYADSVKGRFTISRDNSKNTLYLQMNSLRAEDTAVYYCARVSSGHWDFDYWGQGTLVTVSS
# VL: B1 VL with L4M, N53S, T91V, T93D, V94P
# B4: Ab15: monoclonal antibody binding proTGFβ1 complexes; VH SEQ ID NO: 226, VL SEQ ID NO: 15 (antibody, V domains shown)
# VH: B1 VH with Q1E, S31D, F32Y, T35V, A56F, A57T, F60Y, E108Y
# VL: B1 VL
# B5: Ab16: monoclonal antibody binding proTGFβ1 complexes; VH SEQ ID NO: 228, VL SEQ ID NO: 15 (antibody, V domains shown)
# VH: B3 VH with A30S, D31N, T35S, S53G, F54S, A55G, S56F, A57T, I58T
# VL: B1 VL
# B6: Ab11: monoclonal antibody binding proTGFβ1 complexes; VH SEQ ID NO: 216, VL SEQ ID NO: 15 (antibody, V domains shown)
# VH: B3 VH with A30R, D31N, T35S, A50S, S53G, F54S, A55G, S56G, I58T
# VL: B1 VL
# B7: Ab18: monoclonal antibody binding proTGFβ1 complexes; VH SEQ ID NO: 232, VL SEQ ID NO: 15 (antibody, V domains shown)
# VH: B1 VH with S31D, F32Y, T35V, R98T, E108Y
# VL: B1 VL
# B8: Ab17: monoclonal antibody binding proTGFβ1 complexes; VH SEQ ID NO: 230, VL SEQ ID NO: 15 (antibody, V domains shown)
# VH: B1 VH with Q1E, V5L, R16G, E108Y
# VL: B1 VL
# B9: Ab20: monoclonal antibody binding proTGFβ1 complexes; VH SEQ ID NO: 236, VL SEQ ID NO: 15 (antibody, V domains shown)
# VH: B3 VH with A30S, D31A, S53G, F54S, A55G, S56G, A57V, I58T, F106Y
# VL: B1 VL
# B10: Ab14: monoclonal antibody binding proTGFβ1 complexes; VH SEQ ID NO: 224, VL SEQ ID NO: 223 (antibody, V domains shown)
# VH: B3 VH with A30S, D31A, S53G, F54T, A55G, S56G, A57S, I58T
# VL: B1 VL with L4M, N53S, T91V, T93D, V94P
# System: Cell-associated proTGFβ1
# Assay: Octet binding, cell average of hGARP and hLRRC33 complexes
# Set-up: species or system human
# Conditions: average KD of (E) and (F), read-out: (G) Cell AVRG
# Text: (§1) Column (A) of the table provides monoclonal antibodies with discrete amino acid sequences. […] Columns (B), (C), (E) and (F) provide affinities of each of the listed antibodies, measured in KD, towards the antigen complex as indicated, respectively. […] Average KD values calculated from (B) and (C) are shown in the corresponding column (D), which collectively represents affinities of the antibodies to ECM- or matrix-associated proTGFβ1 complexes. Similarly, Average KD values calculated from (E) and (F) are shown in the corresponding column (G), which collectively represents affinities of the antibodies to cell-surface or cell-associated proTGF complexes. Finally, relative ratios between the average KD values from columns (D) and (G) are expressed as fold bias” in column (H). Thus, the greater the numerical of column (H) is, the greater bias exists for the particular antibody, when comparing binding preferences of the antibody for matrix-associated complexes to cell-surface complexes. This is one way of quantitatively representing and comparing inherent bias of antibodies to their target complexes. Such analyses may be useful in guiding the selection process for a candidate antibody for particular therapeutic use.
row,Molecule,Kd
1,B1,5950 pM
2,B2,3890 pM
3,B3,5700 pM
4,B4,3860 pM
5,B5,2400 pM
6,B6,698 pM
7,B7,6260 pM
8,B8,4640 pM
9,B9,714 pM
10,B10,5920 pM

# System: Cell-associated proTGFβ1
# Assay: MSD-SET binding, cell average of hGARP and hLRRC33 complexes
# Set-up: species or system human
# Conditions: average KD of (E) and (F), read-out: (G) Cell AVRG
# Text: (§2) Column (A) of the table provides monoclonal antibodies with discrete amino acid sequences. […] Columns (B), (C), (E) and (F) provide affinities of each of the listed antibodies, measured in KD, towards the antigen complex as indicated, respectively. […] Similarly, Average KD values calculated from (E) and (F) are shown in the corresponding column (G), which collectively represents affinities of the antibodies to cell-surface or cell-associated proTGF complexes. Finally, relative ratios between the average KD values from columns (D) and (G) are expressed as fold bias” in column (H). Thus, the greater the numerical of column (H) is, the greater bias exists for the particular antibody, when comparing binding preferences of the antibody for matrix-associated complexes to cell-surface complexes. This is one way of quantitatively representing and comparing inherent bias of antibodies to their target complexes. Such analyses may be useful in guiding the selection process for a candidate antibody for particular therapeutic use. Select antibodies of the present disclosure, as measured by MSD-SET, show context-bias (i.e., greater than five-fold bias) or unbias (i.e., less than 5-fold bias) toward matrix-associated complexes over cell-associated complexes. […] Without being bound by a particular theory, the differences in the kinetics of the assays and/or differences in the nature of recombinant proteins may account for the noticeable differences seen in Ab19 binding to hGARP complexes observed in the above Octet assay (see Table 6) compared to the below MSD-SET assay (see Table 7 below). For example, the Octet assay measures kinetic on and off rates, while the MSD-SET assay measures binding at equilibrium. In addition, the recombinant antibodies used in the Octet assay were expressed as IgG1 antibodies in yeast, while the antibodies used in the MSD assay were expressed as IgG4 antibodies in mammalian cells.
row,Molecule,Kd
1,B1,4750 pM
2,B2,2450 pM
3,B6,4650 pM

# System: Matrix-associated proTGFβ1 vs Cell-associated proTGFβ1
# Assay: Octet binding, matrix vs cell bias (G/D)
# Set-up: species or system human
# Conditions: ratio of cell average KD to ECM average KD
# Text: as §1
row,Molecule,(H) G/D (fold bias)
1,B1,34.47 fold
2,B2,22.897 fold
3,B3,21.71 fold
4,B4,24.25 fold
5,B5,15.307 fold
6,B7,22.00 fold
7,B8,24.288 fold
8,B10,17.36 fold

# Biological target: Matrix-associated proTGFβ1
# Assay: Octet binding, ECM average of hLTBP1 and hLTBP3 complexes
# Set-up: species or system human
# Conditions: average KD of (B) and (C), read-out: (D) ECM AVRG
# Text: as §1
row,Kd,Molecule
1,172 pM,B1
2,170 pM,B2
3,262 pM,B3
4,159 pM,B4
5,156 pM,B5
6,160 pM,B6
7,284 pM,B7
8,191 pM,B8
9,162 pM,B9
10,341 pM,B10

# System: Matrix-associated proTGFβ1 vs Cell-associated proTGFβ1
# Assay: MSD-SET binding, matrix vs cell bias (G/D)
# Set-up: species or system human
# Conditions: ratio of cell average KD to ECM average KD
# Text: as §2
row,Molecule,(H) G/D (fold bias)
1,B1,1.675 fold and 1.68 fold
2,B2,3.40 fold
3,B6,3.87 fold
4,B9,6.75 fold

# Biological target: Matrix-associated proTGFβ1
# Assay: MSD-SET binding, ECM average of hLTBP1 and hLTBP3 complexes
# Set-up: species or system human
# Conditions: average KD of (B) and (C), read-out: (D) ECM AVRG
# Text: as §2
row,Kd,Molecule
1,2840 pM,B1
2,720 pM,B2
3,200 pM,B9
